Laboratory results from the supplement of paper PMC9732359.
± gives the uncertainty stated by the source.

Test: protein stability index of a GFP-peptide fusion (yeast GPS) (PSI 1-4); higher = more stable; sorted into four equal gates, so the index is relative within each strain
Procedure, shortened: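 Plasmids isolated from each sorting gate were PCR-amplified and Illumina-sequenced, and barcodes assigned the reads to strains. The gates, four of equal size, were set by GFP/Cherry fluorescence ratio on mid-log cultures in leucine-free medium. These cultures were yeast carrying a pooled library of tiled 17-residue yeast protein peptides fused downstream of GFP on a plasmid that also expresses Cherry. The protein stability index is the sum of every gate's read frequency times its gate number.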

Sequence | protein stability index (doa10∆) | protein stability index (pdr5∆) | protein stability index (san1∆) | protein stability index (ubr1∆)
DHHPEGLSAREAVKQAA [PRE10] | 3.02 ± 0.095 | 2.53 ± 0.066 | 2.67 ± 0.082 | 2.69 ± 0.049
DHILFTKTFIFIYKKVL [SRB8] | 1.49 ± 0.091 | 1.14 ± 0.14 | 1.15 ± 0.13 | 1.11 ± 0.044
DHKFPIRENKVTYSRVS [BRN1] | 2.75 ± 0.13 | 2.9 ± 0.11 | 3.01 ± 0.097 | 2.66 ± 0.087
DIEFINSLLTIVWRFIS [RPC34] | – | 2.91 ± 0.23 | 2.51 ± 0.21 | 2.12 ± 0.14
DIEIVRVNKNAPAVELH [FAS2] | 2.87 ± 0.061 | 3.08 ± 0.064 | 3.24 ± 0.091 | 2.96 ± 0.049
DIENKEEEYDETHETNI [YAR002W/NUP60] | 3.34 ± 0.071 | 3.21 ± 0.087 | 3.42 ± 0.083 | 3.33 ± 0.064
DIFGDSELFDEWFEQNN [ISW2] | 2.36 ± 0.069 | 2.49 ± 0.072 | 1.31 ± 0.15 | 1.63 ± 0.056
DIGKGAETTFLQDVIAL [RPC53] | 2.52 ± 0.073 | 2.31 ± 0.1 | 2.38 ± 0.11 | 2.71 ± 0.056
DIIMNPHGFPSRMTVGK [RET1] | 2.67 ± 0.056 | 2.83 ± 0.076 | 2.79 ± 0.049 | 2.71 ± 0.065
DIINAVNEIMYKCTAAM [MTW1] | 2.73 ± 0.089 | 2.77 ± 0.1 | 2.84 ± 0.11 | 2.33 ± 0.072
DIKAAVDDSMELCGQIR [ITC1] | 2.65 ± 0.092 | 2.82 ± 0.12 | 2.21 ± 0.17 | 2.9 ± 0.14
DILLRLCVLWDDLQSSV [YCG1] | 1.65 ± 0.067 | 1.4 ± 0.051 | 1.72 ± 0.087 | 2.11 ± 0.07
DINTVNTNLMNGVNVQI [GRR1] | 3.21 ± 0.097 | 3 ± 0.087 | 2.98 ± 0.074 | 3.06 ± 0.073
DIPPPAIMKPYYLWTGK [RPO31] | 2.74 ± 0.068 | 2.77 ± 0.075 | 2.9 ± 0.074 | 2.79 ± 0.047
DIQAMCTEAGLLALRER [RPT2] | 2.65 ± 0.088 | 3.33 ± 0.12 | 3.33 ± 0.047 | 3.26 ± 0.055
DIQLKNLFPLKPKMLPI [SRP68] | 2.78 ± 0.077 | 2.66 ± 0.057 | 2.4 ± 0.058 | 2.46 ± 0.073
DITTSIMDNFLERTAIE [RPN1] | 3.21 ± 0.12 | 3.35 ± 0.17 | 3.22 ± 0.086 | 3.28 ± 0.12
DIVQYHLELYTSQYGTP [PRE3] | 2.1 ± 0.063 | 1.74 ± 0.058 | 1.77 ± 0.07 | 2 ± 0.042
DIWQSRDQGNDSLNDDL [YIL149C/MLP2] | 3.53 ± 0.28 | – | 3.65 ± 0.17 | 3.76 ± 0.14
DKEKEENNDDALDLDLD [MED4] | 2.92 ± 0.072 | 3.12 ± 0.095 | 2.95 ± 0.063 | 3.16 ± 0.054
DKFSPEDGLGPLMAKSV [ARP7] | 3.02 ± 0.11 | 3.06 ± 0.11 | 2.66 ± 0.13 | 3.39 ± 0.097
DKITLHDEKTLAPSKHQ [SIR4] | – | 2.68 ± 0.16 | 2.44 ± 0.2 | 2.92 ± 0.19
DKKNKRLKFGHRLIATH [SNF2] | 2.02 ± 0.077 | 1.8 ± 0.057 | 1.85 ± 0.091 | 2 ± 0.056
DKLICSIDPPGCVDIDD [DIS3] | 3.33 ± 0.068 | 3.11 ± 0.062 | 2.78 ± 0.068 | 3.14 ± 0.091
DKNKLLLLAAQIVSYCS [SSN2] | 1.97 ± 0.039 | 1.66 ± 0.038 | 2.05 ± 0.06 | 1.74 ± 0.037
DKSTTQLRKEIQLLDEN [MED11] | 1.56 ± 0.093 | 1.54 ± 0.086 | 1.71 ± 0.17 | 1.55 ± 0.068
DKTLRLWDVATGETYQR [ASC1] | 3 ± 0.23 | 3.36 ± 0.16 | 2.18 ± 0.19 | 3.42 ± 0.091

Sequence | protein stability index (doa10∆) | protein stability index (pdr5∆) | protein stability index (san1∆) | protein stability index (ubr1∆)
DKVDDYTPEEVDKIERE [SMC4] | 1.17 ± 0.11 | 1.45 ± 0.12 | 1.32 ± 0.22 | 1.28 ± 0.11
DKVSSCFPQYVNSKQGA [NNF1] | 2.07 ± 0.088 | 2.23 ± 0.091 | 2.11 ± 0.12 | 2.95 ± 0.092
DLCDVVESKFTEKIKSM [RPC19] | 3.43 ± 0.2 | 2.9 ± 0.11 | 3.33 ± 0.1 | 3.44 ± 0.077
DLENSPLKTELEANGRS [SSN2] | 3.6 ± 0.094 | 3.59 ± 0.093 | 3.17 ± 0.096 | 3.51 ± 0.089
DLESSSPELKADLRPLQ [RPS7B] | 2.89 ± 0.29 | 2.97 ± 0.21 | – | 3.27 ± 0.17
DLEWQELTSFSSQPLEP [DSN1] | 3.05 ± 0.054 | 3.05 ± 0.053 | 2.98 ± 0.054 | 2.98 ± 0.036
DLKFKRHKNKHIQGFPT [DSN1] | 3.15 ± 0.13 | 3.38 ± 0.28 | 1.75 ± 0.12 | 2.98 ± 0.12
DLKIEKLVLNISVGESG [RPL11A] | 2.81 ± 0.12 | 2.66 ± 0.095 | 2.52 ± 0.09 | 1.89 ± 0.09
DLKNTRMKSITSTSQKI [SNF5] | 3.23 ± 0.082 | 3.14 ± 0.074 | 3.17 ± 0.045 | 3.08 ± 0.05
DLLKLVHLSNGYKMIPG [FAS1] | 2.3 ± 0.057 | 2.46 ± 0.055 | 2.14 ± 0.064 | 2.24 ± 0.039
DLNKENKLLRRKLMEME [YIL149C/MLP2] | 3.41 ± 0.2 | 2.95 ± 0.21 | 3.33 ± 0.11 | –
DLSANQRETMKERKLRE [SMC1] | 3.3 ± 0.13 | 3.06 ± 0.096 | 2.96 ± 0.091 | 3.42 ± 0.063
DLSRIMDWLDNWGRKEH [ITC1] | 3.31 ± 0.2 | 3.33 ± 0.26 | 3.48 ± 0.14 | –
DLSVTPQKSSSKGFVFN [YAR002W/NUP60] | 2.74 ± 0.089 | 3.06 ± 0.12 | 2.88 ± 0.057 | 3.06 ± 0.12
DLSYIEFLFESLKNDLP [ECM29] | 2.84 ± 0.13 | 2.65 ± 0.14 | 2.78 ± 0.083 | 3.13 ± 0.12
DLTGSEPIKEIIDNWEK [FAS1] | – | 2.79 ± 0.15 | – | 3.07 ± 0.16
DLVIVDENELKKSEEKL [MTW1] | 3.51 ± 0.19 | – | – | –
DMATGSNDTTAFNDSCV [SRB8] | 2.73 ± 0.05 | 3.07 ± 0.06 | 3.14 ± 0.045 | 2.86 ± 0.037
DMPCDVLAKRMANLSQI [SCL1] | 1.71 ± 0.09 | 1.4 ± 0.064 | 1.6 ± 0.17 | 1.61 ± 0.076
DMVMATVKKGKPELRKK [RPL23A] | 3.49 ± 0.15 | 3.35 ± 0.18 | 3.54 ± 0.1 | 3.22 ± 0.11
DNDTVVTNDDKSDDDDH [SRB8] | – | 2.88 ± 0.15 | 3.24 ± 0.26 | 3.19 ± 0.11
DNGLGPLKYAPHLPFSK [SWI3] | 3.13 ± 0.058 | 3.22 ± 0.069 | 2.85 ± 0.07 | 3.21 ± 0.058
DNMITGVTKGYKYKMRY [RPL9A] | 3.07 ± 0.096 | 3.3 ± 0.14 | 2.92 ± 0.27 | 3.1 ± 0.067
DNPDQGISDMCRLFFTE [YCS4] | 3.37 ± 0.14 | 3.63 ± 0.15 | 3.03 ± 0.14 | 3.04 ± 0.15
DNSEYSRNGDFPRTRFE [RPN10] | 3.13 ± 0.2 | 3.12 ± 0.22 | 3.45 ± 0.16 | 3.49 ± 0.17
DNSVEQGRRLGESIMSE [MCD1] | – | 3.41 ± 0.22 | – | 3.33 ± 0.12
DNTARVIFDASIKDTQN [BRN1] | 2.1 ± 0.078 | 2.06 ± 0.064 | 2.42 ± 0.1 | 2.68 ± 0.048
